Target: Musashi-2 (MSI2) (UniProt Q96DH6 1-328)
Test: EMSA; 10 mM HEPES pH 7.6, 20 mM KCl, 1 mM MgCl2, 1 mM DTT, 5% glycerol, protease inhibitors, 2 ug tRNA, 20 U SUPERase-In, 20 ul, 50 ng MSI2, 20 ng RNA, 25 C; 8% PAGE
Details: protein: recombinant; label: 5'-32P

Sequence of Musashi-2 (MSI2) (Q96DH6 whole entry): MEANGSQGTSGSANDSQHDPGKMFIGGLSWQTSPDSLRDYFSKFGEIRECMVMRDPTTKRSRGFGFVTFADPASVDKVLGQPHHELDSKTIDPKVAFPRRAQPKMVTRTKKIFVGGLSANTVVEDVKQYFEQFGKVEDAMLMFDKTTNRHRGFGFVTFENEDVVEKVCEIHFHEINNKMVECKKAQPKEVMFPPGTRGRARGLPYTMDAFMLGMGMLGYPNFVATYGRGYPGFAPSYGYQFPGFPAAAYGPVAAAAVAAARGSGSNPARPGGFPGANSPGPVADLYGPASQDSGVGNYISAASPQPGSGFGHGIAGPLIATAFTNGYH

Binder	binding result
GCAGAUGUUUUAGAAGGAAAAA (ssRNA) [EGFR Oligo 1 wt]	binds
UAACUUCGUUUUAGAAACAUUCAAG (ssRNA) [EGFR Oligo 2 wt]	binds
GUAGUAGUAGUAGUA (ssRNA) [Positive Control oligo]	binds
GGUCCCAAGCCAAGCCUUAAGU (ssRNA) [Negative Control oligo]	no binding

Source: PMC7961039, “Musashi-2 (MSI2) regulates epidermal growth factor receptor (EGFR) expression and response to EGFR inhibitors in EGFR-mutated non-small cell lung cancer (NSCLC)”
